Experimental findings from doi:10.1101/2020.02.28.970509 are described below.

Some targets named below: A3H Hap II (human, UniProt Q6NTF7 1-181, G105R;K121D;E178D); A3H Hap VII (human, UniProt Q6NTF7 1-200, G105R); A3H Hap I K117E/K121E (human, UniProt Q6NTF7 1-200, K117E;K121E); A3H Hap I K117E (human, UniProt Q6NTF7 1-200, K117E).
Assay in all cases: fluorescence anisotropy
(Fluorescence polarisation rises when a labelled molecule tumbles more slowly, as on binding a larger partner.)

Sequence of A3H Hap II (Q6NTF7 1-181 G105R/K121D/E178D): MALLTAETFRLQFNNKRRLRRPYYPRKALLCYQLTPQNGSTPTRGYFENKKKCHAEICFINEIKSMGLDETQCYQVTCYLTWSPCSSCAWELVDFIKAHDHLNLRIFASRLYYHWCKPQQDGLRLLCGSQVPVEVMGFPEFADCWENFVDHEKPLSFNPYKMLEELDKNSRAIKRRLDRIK
Sequence of A3H Hap I K117E/K121E (Q6NTF7 whole entry K117E/K121E): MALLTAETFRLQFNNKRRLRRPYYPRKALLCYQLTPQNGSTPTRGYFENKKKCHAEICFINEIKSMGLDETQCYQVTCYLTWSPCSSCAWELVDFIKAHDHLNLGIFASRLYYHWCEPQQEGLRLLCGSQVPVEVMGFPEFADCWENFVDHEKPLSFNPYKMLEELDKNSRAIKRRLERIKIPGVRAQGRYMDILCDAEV
Sequence of A3H Hap VII (Q6NTF7 whole entry G105R): as the sequence (Q6NTF7 whole entry K117E/K121E) above, with G105R, E117K, E121K counted along it
Sequence of A3H Hap I K117E (Q6NTF7 whole entry K117E): as the sequence (Q6NTF7 whole entry K117E/K121E) above, with E121K counted along it

B1: 118 nt ssDNA (ssDNA)
DNA: GAATATAGTTTTTAGCTCAAAGTAAGTGAAGATAATTTAGAGAGTTGTAATGTGATATATGTGTATGAAAGATATAAGACTCAAAGTGAAAAGTTGTTAATGTGTGTAGATATGTTAA
modifications: internal fluorescein-dT at position 37 (between S1 and S2)
One may read the Kd as the constant that tells how readily two partners part at equilibrium. Higher therefore signals a looser complex. In the case of B1, the Kd in the data set with A3H Hap II was 492 ± 28 nM; in the data set with A3H Hap VII, 522 ± 4 nM; with A3H Hap I K117E/K121E it was 1240 ± 88 nM; in the data set with A3H Hap I K117E, 3000 ± 1770 nM.
